Patent US20230131338A1

Legend:
[1] = target: human FXI (zymogen; Factor XI protein, human plasma, Enzyme Research Laboratories cat. HFXI 1111) (human) (UniProt P03951); assay: SPR (Biacore 8K), mAb captured via anti-human Fc, plasma-derived hFXI injected, 25°C
[2] = target: human FXI (zymogen; Factor XI protein, human plasma, Enzyme Research Laboratories cat. HFXI 1111) (human) (UniProt P03951); assay: SPR (Biacore 8K), mAb captured via anti-human Fc, plasma-derived hFXI injected, 37°C
[3] = target: human FXIa (activated; Factor XIa protein, human plasma, Enzyme Research Laboratories cat. HFXIa 1111a) (human) (UniProt P03951); assay: SPR (Biacore 8K), mAb captured via anti-human Fc, plasma-derived hFXIa injected, 25°C
[4] = target: human FXIa (activated; Factor XIa protein, human plasma, Enzyme Research Laboratories cat. HFXIa 1111a) (human) (UniProt P03951); assay: SPR (Biacore 8K), mAb captured via anti-human Fc, plasma-derived hFXIa injected, 37°C

Q: With “Isotype control mAb [REGN1945] (antibody)” as the substance, how does the 25 nM Ag Bound (RU) [1] read?
A: 1.3 RU

Q: What about the 25 nM Ag Bound (RU) [2] of the same substance?
A: 3.2 RU

Q: What about the 25 nM Ag Bound (RU) [3] of the same substance?
A: -1.4 RU

Q: What about the 25 nM Ag Bound (RU) [4] of the same substance?
A: 0.3 RU
